PMC2171732 (The Journal of Cell Biology, 2005)

Biological target: T1, Myo2p globular tail subdomain II (residues 1346–1574), tryptic fragment (S. cerevisiae, UniProt P19524 1346-1574)
T1 sequence (looked up): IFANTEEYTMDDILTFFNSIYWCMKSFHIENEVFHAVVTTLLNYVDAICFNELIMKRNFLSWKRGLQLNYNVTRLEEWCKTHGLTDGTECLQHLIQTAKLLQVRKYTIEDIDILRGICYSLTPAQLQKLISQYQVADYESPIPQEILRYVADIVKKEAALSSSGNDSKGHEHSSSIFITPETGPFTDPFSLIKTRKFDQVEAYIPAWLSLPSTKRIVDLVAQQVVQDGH
Assay: SEC

B1: Myo2p globular tail subdomain I (residues 1131–1345), tryptic fragment (domain or fragment, S. cerevisiae, UniProt P19524 1131-1345, looked up)
chain: STPSSGNNHIDSLSVDRENGVNATQINEELYRLLEDTEILNQEITEGLLKGFEVPDAGVAIQLSKRDVVYPARILIIVLSEMWRFGLTKQSESFLAQVLTTIQKVVTQLKGNDLIPSGVFWLANVRELYSFVVFALNSILTEETFKNGMTDEEYKEYVSLVTELKDDFEALSYNIYNIWLKKLQKQLQKKAINAVVISESLPGFSAGETSGFLNK
- Kd: ≤ 1 nM
